Where two headings read alike, the source gives them in different places.
Assays:
[1] = molecular target: N-terminal Flag-tagged LRRC33 with its C-terminal transmembrane domain substituted with that of GARP (WT); experiment: flow cytometry on cells; details: for response: n = 3, mean ± s.d., read off a plot
[2] = molecular target: N-terminal Flag-tagged LRRC33 with its C-terminal transmembrane domain substituted with that of GARP (WT); experiment: flow cytometry on cells; details: n = 3, mean ± s.d., read off a plot
[3] = molecular target: L-TGF-β1 WT with the furin cleavage site between LAP and the growth factor replaced with an HA tag (UniProt P01137); experiment: flow cytometry on cells
[4] = molecular target: L-TGF-β1 C4S/R249A (the 'WT' of the SPR assay) (human); experiment: SPR; Biacore T200, 25 °C; L-TGF-β1 (C4S/R249A, or + RGEGATG) immobilised on a CM5 chip by amine coupling; integrin headpieces injected at 20 μl/min in 20 mM HEPES pH 7.5, 150 mM NaCl, 1 mM MgCl2, 1 mM CaCl2; 1:1 Langmuir model
[5] = Expi293F cells co-transfected with L-TGF-β1 and LRRC33, anti-HA staining

other: percentage of L-TGF-β+ (anti-HA+) subset [1] [%] | response ([1]; parent: est. 21000) [MFI] | Substance | also measured
9.58 | 2800 | L-TGF-β1 WT with the furin cleavage site between LAP and the growth factor replaced with an HA tag (from UniProt P01137) H317I | response ([2]; parent: est. 21000): 3600 MFI
 | 6000 | L-TGF-β1 WT with the furin cleavage site between LAP and the growth factor replaced with an HA tag (from UniProt P01137) H317L | 
 | 16000 | L-TGF-β1 WT with the furin cleavage site between LAP and the growth factor replaced with an HA tag (from UniProt P01137) I300L | 
 | 15000 | L-TGF-β1 WT with the furin cleavage site between LAP and the growth factor replaced with an HA tag (from UniProt P01137) K309R | 
 | 5500 | L-TGF-β1 WT with the furin cleavage site between LAP and the growth factor replaced with an HA tag (from UniProt P01137) K309T | 
15.2 |  | L-TGF-β1 WT with the furin cleavage site between LAP and the growth factor replaced with an HA tag (from UniProt P01137) K309T; H317L | response ([2]; parent: est. 21000): 3400 MFI
 | 26000 | L-TGF-β1 WT with the furin cleavage site between LAP and the growth factor replaced with an HA tag (from UniProt P01137) L303A | 
 | 25000 | L-TGF-β1 WT with the furin cleavage site between LAP and the growth factor replaced with an HA tag (from UniProt P01137) L303S | 
 | 16000 | L-TGF-β1 WT with the furin cleavage site between LAP and the growth factor replaced with an HA tag (from UniProt P01137) P296A | 
 | 13000 | L-TGF-β1 WT with the furin cleavage site between LAP and the growth factor replaced with an HA tag (from UniProt P01137) Q306T | 
 |  | L-TGF-β1 WT with the furin cleavage site between LAP and the growth factor replaced with an HA tag (from UniProt P01137) W301A | other: percentage of L-TGF-β+ (anti-HA+) subset [1, 5]: 28.7%; response ([1]; Expi293F cells, parent: est. 22000): 5300 MFI
 | 14000 | L-TGF-β1 WT with the furin cleavage site between LAP and the growth factor replaced with an HA tag (from UniProt P01137) W301R | 
12.3 |  | L-TGF-β1 WT with the furin cleavage site between LAP and the growth factor replaced with an HA tag (from UniProt P01137) W301R; K309T; H317L | response ([2]; parent: est. 21000): 3500 MFI
 | 28000 | L-TGF-β1 WT with the furin cleavage site between LAP and the growth factor replaced with an HA tag (from UniProt P01137) Y307H | 
44.6 |  | L-TGF-β2 WT with HA tag in place of the furin cleavage site (from UniProt P61812) I350H | response ([2]; parent: est. 2800): 11000 MFI
21.5 |  | L-TGF-β3 WT with HA tag in place of the furin cleavage site (from UniProt P10600) R328W; T336K; L344H | response ([2]; parent: est. 2700): 5500 MFI
14.4 |  | L-TGF-β3 WT with HA tag in place of the furin cleavage site (from UniProt P10600) T336K; L344H | response ([2]; parent: est. 2700): 4000 MFI
 |  | N-terminal Flag-tagged LRRC33 with its C-terminal transmembrane domain substituted with that of GARP (WT) Y174R | other: percentage of L-TGF-β+ (anti-HA+) subset [3, 5]: 23.1%; response ([3]; Expi293F cells, n = 3, mean ± s.d., parent: est. 22000, read off a plot): 4000 MFI
 |  | integrin αVβ8-6DLL headpiece (the disulfide-linked loop of β8 substituted by that of β6) (complex) | Kd [4]: 19.8 nM
 |  | αVβ8-IgG1 Fc (heterotetramer of αVβ8 linked by the IgG1 Fc fragment on the C-terminus of β8) (Fc fusion) | Kd [4]: 5.75 nM

From PMC9411592
